According to US20230313217A1, “CHLOROPLAST TARGETING PEPTIDES AND CONJUGATES AND COMPOSITIONS THEREOF” (The Regents of the University of California, priority 2021, published 2023):
Ends that are not written are not given here.

What was measured:
[1] = system: whole plant cell DNA; conditions: in vivo
Method: DNA was extracted from plant leaf tissue and prepared using a Quick-DNA Plant/Seed DNA Miniprep kit (Zymo) in leaf samples treated with nanomaterials from one to five days. Each DNA sample contained 150 mg of plant tissue or 1 mL of isolated chloroplast suspension collected as explained above. Samples were placed in liquid nitrogen-filled mortar and pestle, ground, and placed directly into a Zymo BashingBead Lysis Tube with 750 μL BashingBead Buffer. The mixture was homogenized on a mixer mill (Retsch MM 400) for 10 minutes at 28 Hz. The DNA extraction was performed according to the manufacturer's instructions (zymoresearch.com) and concentrations were measured using a Nanodrop ND-1000 Spectrophotometer. Samples were stored at −20° C. until used for the 8-OHdG DNA damage biomarker assay.
We determined the amount of oxidative DNA damage in plant leaves treated with nanomaterials for one day or five days using an enzyme-linked immunosorbent assay (ELISA) for 8-hydroxydeoxyguanosine (8-OHdG). The OxiSelect™ Oxidative DNA Damage ELISA Kit (Cat# STA-320, Cell Biolabs, inc.) quantifies the amount of 8-OHdG in isolated DNA samples from plant leaf tissue or isolated chloroplast suspensions. […] Sample absorbance was read at 450 nm on an Infinite MPlex plate reader (Tecan).

[2] = system: plant cell membranes; test: Plant cell membrane intactness (PI staining, confocal); assay type: in vivo, Arabidopsis thaliana; conditions: after 5 days of exposure; 20 mg/L / 2 mg/L
Description: Interactions of Targeted Carbon Nanostructures with Plant Cell and Chloroplast Membranes. Damage to plant lipid membranes may cause ion and molecule permeability changes across the membrane, interruption of metabolic processes, intracellular signaling, and trafficking of biomolecules.^65,66 The application of targeted nanostructures with high charge allows penetration of plant cell barriers and localization inside organelles that could cause disruption in lipid membrane integrity. Plant cell membrane intactness in leaves treated with TP-β-CDs or TP-pATV1-SWCNTs (Table 1) was assessed by staining dead cells with propidium iodide (PI) dye followed by imaging under confocal microscopy (FIG. 7A). PI is a nonpermeable dye that only crosses the cell membranes when they are damaged. The overall percentage of intact cells without PI stained nuclei was calculated relative to the total number of cells (FIG. 7B). […] Both TP-β-CDs and TP-pATV1-SWCNTs maintained more than 93% of plant cells with intact membranes after 1 and 5 days of exposure, similar to controls without nanoparticles (FIG. 7B). […]
The percentage of intact cells was determined in Arabidopsis thaliana leaf tissues treated with TP-β-CD (20, 100, 500 mg/L) or TP-pATV1-SWCNT (2, 5, 10 mg/L) from one to five days. […] The total number of cells was determined using chloroplast autofluorescence to identify the leaf mesophyll cell boundaries. […]

[3] = system: chloroplasts in Arabidopsis leaves; test: Confocal colocalization of nanomaterials with chloroplasts after foliar spray; assay type: in vivo, Arabidopsis thaliana
Method: In Vivo Imaging of Chloroplast Targeted Nanomaterials. Confocal fluorescence microscopy imaging was used to determine the colocalization between chloroplasts in Arabidopsis leaves and both targeted and nontargeted β-CDs and CY3-ds(GT)15 (SEQ ID NO: 6) DNA coated SWCNT (FIG. 3A,B). Nanomaterials were foliar sprayed on whole plants in a formulation containing 0.1% Silwet (v/v) (Table 1). Control confocal images of leaves treated with only 10 mM TES buffer have no background autofluorescence in CD and CY3-ds(GT)15 (SEQ ID NO: 6) DNA emission channels (FIG. 12). The level of colocalization of fluorescent emission from nanocarriers with chloroplasts was determined by Manders' coefficient analysis (COLOC2, ImageJ) (FIG. 3C). The localization of targeted nanomaterials (TP-β-CD and TP-CY3-ds(GT)15-SWCNT) with chloroplasts in leaf mesophyll cells was higher compared to nontargeted materials lacking the targeting peptide (β-CD and CY3-ds(GT)15-SWCNT). […] Previously, we reported an in vivo increase in colocalization of chloroplasts with heavy-metal-based quantum dots functionalized with chloroplast targeting biorecognition peptides,^16 indicating the robustness of this approach for a variety of targeted nanomaterials. […]
Confocal Fluorescence Microscopy. […]

## TP-β-CD: carbon dots with β-cyclodextrin molecular baskets covalently bonded to chloroplast targeting peptide MASSMLSSATMVGGC (SEQ ID NO:5) (also: covalently bonded to carbon dots with β-cyclodextrin, site not given here)
[1]
  increase in oxidative damage to whole plant cell DNA: 2 fold
[2]
  cell and chloroplast membrane damage: no permanent cell and chloroplast membrane damage
[3]; foliar spray, CD 20 mg/L, ds(GT)15-SWCNT 2 mg/L, Manders' coefficient, FIG. 3C
  colocalization rates of nanomaterials with chloroplasts: 70.0±9.46%
[3]; summary of Example 1
  delivery, % of chloroplasts in leaves: 70%
